In patent US20240279618A1, “RECEPTOR TYROSINE KINASE AGONIST, COMPOSITION FOR CELL CULTURE MEDIUM, AND […] MAINTENANCE COMPOSITION” (SEKISUI CHEMICAL CO., LTD., priority 2021, published 2024):

Legend:
iPS cells (253G1 cells) [1] = assay: iPS cell culture: evaluation of preservation stability; type: cell-based, human; conditions: stock preserved 3 or 4 weeks at 4° C. versus −80° C.; 20 ng/mL
Protocol: Basic FGF and VHH stocks were collected in a 1.5 mL microtube 3 or 4 weeks before culturing, and preserved in a refrigerator (4° C.). Hereinafter, all operations were the same as those in the cell growth evaluation procedure, except that for basic FGF and VHH, a medium was prepared so that the both were preserved at 20 ng/mL using both refrigeration (4° C.)- and freeze (−80° C.)-preservation conditions.

iPS cells (253G1 cells) [2] = assay: iPS cell culture: evaluation of undifferentiated state (immunostaining); type: cell-based, human; conditions: second passage, Day 6 (Culture day 20)
Protocol: The cells were cultured in the medium of each group for 3 to 5 weeks, and the following operations were performed on Days 4 to 7 of the passage. After washing the cells with D-PBS, 1 mL/well of 4% formaldehyde was added. After being left to stand for 30 minutes or longer, the solution was removed and washing was performed with D-PBS. 0.1% Triton X-100/D-PBS was added thereto and the mixture was left to stand at room temperature for 3 to 5 minutes. After washing with D-PBS, 1% of BSA/D-PBS was added thereto and the mixture was left to stand for 30 minutes.
An antibody for undifferentiation marker staining, such as OCT4 (Abcam, ab19857) or SSEA4 (Abcam, ab16287), was diluted in 1% BSA/D-PBS at an appropriate ratio, added to a well, which was left to stand for 30 to 60 minutes. After washing with D-PBS, secondary antibodies (a Goat anti-Rabbit IgG antibody (Abcam, ab 150115) and a Goat anti-Mouse IgG antibody (Abcam, ab150077)) were diluted in 1% BSA/D-PBS at an appropriate ratio and added to the wells, which were left to stand with light shielded with an aluminum foil for 30 to 60 minutes. DAPI (DOJINDO LABORATORIES, 340-07971) was diluted with 1% BSA/D-PBS to a concentration of 1 to 10 μg/mL, and added to each well, which was left to stand for 5 minutes. […] The image was acquired by observing the sample under a fluorescence microscope.

[3] = system: phospho-p44/42 MAPK (Erk½); assay: Agonist activity by In Cell ELISA in NIH3T3 cells; type: cell-based, mouse; conditions: 30 minutes stimulation, final dilution ratio 100-fold, relative to no stimulus = 1
Source text: In order to verify the agonist activity of the purified VHH (monomer), the expression level of phospho-p44/42 MAPK (Erk½) was […] by using an In Cell ELISA method. VHH (monomer) was allowed to act on the cells such that the final dilution ratio was 100-fold. In addition, as a positive control, FGF2 (fibroblast growth factor (basic) (FGF-basic/bFGF/FGF2), human, recombinant, animal-derived substance-free (154aa): product code 068-05384; manufactured by Fujifilm Wako Pure Chemical Corporation: final concentration: 100 ng/mL) was used. The experimental procedure was as described below.
A D-MEM (D6429, manufactured by Sigma-Aldrich Co., LLC) medium including a 10% fetal bovine serum (S0400, manufactured by BWT) and 1% Penicillin-Streptomycin Mixed Solution, 26253-84, manufactured by Nacalai Tesque, Inc.) was prepared, NIH3T3 (CRL1658, ATCC) was suspended therein, and the suspension was seeded on a 96-well plate for cell culture at 1× 10^4 cells/well and cultured overnight at 37° C. with light shielded in a 5% CO2 incubator. The medium in each well was removed and the inside of each well was washed with a serum-free medium. […]

Molecule | growth performance of iPS cells with additive preserved at 4° C. (iPS cells (253G1 cells) [1]) | undifferentiation markers OCT4 and SSEA4 (iPS cells (253G1 cells) [2]) | agonist activity (expression level of phospho-p44/42 MAPK (Erk½)) [3]
FGF2: fibroblast growth factor (basic), human, recombinant (154aa), positive control; SEQ ID NO: 58 [reference compound] | growth performance was significantly deteriorated | positive | 
VHH Clone #2: alpaca-derived VHH single-domain antibody (monomer) binding FGFR1, amino acid sequence SEQ ID NO: 18 (protein, VHH_Clone_#2) VHH: QVQLVESGGGLVQAGGSLRLSCAVPGSIFRFNTMGWYRQPPGKQRELVAQMSRGGITKYGDSVKGRFTITRDNAKNTVHLQMNSLKPEDTAVYYCAGSYYSGSYYYPSPQGFSVWGQGTQVTVSP |  |  | none of the VHHs (monomers) have an agonist activity
#1-L4-#1: dimer of VHH #1 with linker L4 (GSEGKSSGSGSESKST), SEQ ID NO: 23 (protein, #1-L4-#1) VHH: QLQLVESGGGSVQAGGSLRLSCAASRSLSRFNVWTWYRQAPVKQRELVASITKSGDTNYAESVKGRFIISRDDDKNTVYLQMNNLKSEDTGIYYCAGSYYSGSYLYPSPGGFSVWGQGTQVTVSSGSEGKSSGSGSESKSTQLQLVESGGGSVQAGGSLRLSCAASRSLSRFNVWTWYRQAPVKQRELVASITKSGDTNYAESVKGRFIISRDDDKNTVYLQMNNLKSEDTGIYYCAGSYYSGSYLYPSPGGFSVWGQGTQVTVSS | exhibited growth performance similar to that of VHH preserved at −80 °C | positive | 
VHH Clone #1: alpaca-derived VHH single-domain antibody (monomer) binding FGFR1, amino acid sequence SEQ ID NO: 17 (protein, VHH_Clone_#1) VHH: QLQLVESGGGSVQAGGSLRLSCAASRSLSRFNVWTWYRQAPVKQRELVASITKSGDTNYAESVKGRFIISRDDDKNTVYLQMNNLKSEDTGIYYCAGSYYSGSYLYPSPGGFSVWGQGTQVTVSS |  |  | none of the VHHs (monomers) have an agonist activity
